# Assay results reported in patent US20240209109A1 (CONCEPT TO MEDICINE BIOTECH, published 2024).
# Key:
# human CD40 on cells [1] = target: T1, human CD40 on cells (human, UniProt P25942 21-277); assay: FACS on human dendritic cells, MFI
# T1 construct: whole, on cells; also called cell surface CD40; Jurkat-CD40
# human CD40 on cells [2] = target: T1, human CD40 on cells; assay: FACS on Jurkat cells overexpressing human CD40, PE anti-human IgG, MFI
# Procedure: To evaluate their binding affinity to cell surface CD40, chimeric anti-CD40 monospecific antibodies were tested in Jurkat cell lines that overexpressed CD40 by FACS. A total number of 1×10⁵ Jurkat-CD40 cells in each well were incubated with 10-fold serially diluted antibodies starting from 100 nM for 30 minutes at 4° C. in FACS buffer. After wash by FACS buffer, PE conjugated-anti-human IgG antibody was added to each well and incubated at 4° C. for 30 minutes. After wash, MFI of PE was evaluated by MACSQuant Analyzer 16.
# T1 sequence (P25942 21-277): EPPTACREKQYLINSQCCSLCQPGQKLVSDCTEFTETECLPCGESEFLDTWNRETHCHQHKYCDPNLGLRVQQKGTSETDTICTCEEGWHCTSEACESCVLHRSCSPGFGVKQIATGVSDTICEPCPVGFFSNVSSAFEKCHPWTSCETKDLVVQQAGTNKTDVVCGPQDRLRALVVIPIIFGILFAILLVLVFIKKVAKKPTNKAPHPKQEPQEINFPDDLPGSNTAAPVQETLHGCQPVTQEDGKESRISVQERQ
Binder,EC50 (read off the curve) (human CD40 on cells [1]) [nM],EC50 (read off the curve) (human CD40 on cells [2]) [nM]
"b16 (42p155z2)-LALA humanized anti-5T4/CD40 bispecific antibody (bispecific antibody, human IgG1, kappa, L234A L235A, 1+2 b16 format, humanized 5T4 arm; also called b16 (42p15522)-LALA) heavy 1: QVQLVQSGAEVKKPGASVKVSCKASGYAFSSSWMNWVRQAPGQGLEWMGRIYREDGHTNYNGKFKGRVTMTADKSITTAYMELSRLRSDDTAVYYCANGGAMDYWGQGTLVTVSSASTKGPSVFPLAPSSKSTSGGTAALGCLVKDYFPEPVTVSWNSGALTSGVHTFPAVLQSSGLYSLSSVVTVPSSSLGTQTYICNVNHKPSNTKVDKKVEPKSCDKTHTCPPCPAPEAAGGPSVFLFPPKPKDTLMISRTPEVTCVVVDVSHEDPEVKFNWYVDGVEVHNAKTKPREEQYNSTYRVVSVLTVLHQDWLNGKEYKCKVSNKALPAPIEKTISKAKGQPREPQVCTLPPSREEMTKNQVSLSCAVKGFYPSDIAVEWESNGQPENNYKTTPPVLDSDGSFFLVSKLTVDKSRWQQGNVFSCSVMHEALHNHYTQKSLSLSPGK light: not shown heavy 2: not shown",~0.6,
"2p1294 chimeric monospecific antibody (antibody, V domains shown, chimeric monospecific antibody made from the alpaca VHH) VH: QVQLVESGGGLVQPGGSLRLSCAASGFSFRRYTMSWVRQAPGKGLEWVSAISDNGAITTYTESAQGRFTISRDNAKNTLYLQMNSLKPEDTAVYYCAQGGGSNYYRESWGQGTQVTVSS",,~0.2
"42p655 chimeric monospecific antibody (antibody, V domains shown, chimeric monospecific antibody made from the alpaca VHH) VH: AVQLVESGGGLVQPGGSLRLSCAASGFAFRRYTMSWVRQAPGKGLEWVSSITDNGSITTYAESAQGRFTISRDNAKNTLYLQMNSLKPEDTAVYHCAQGGGSNYYRESWGQGTQVTVSS",,~0.2
